# Test results published in paper PMC4930772.
# Target: PP2A B56γ1 30-380 (UniProt Q13362)
# Experiment: ITC
# [1] = reference: wild type, sites S676
# [2] = reference: wild type, sites T680
# [3] = reference: wild type, sites S670
substance,measurement,setting,value
BubR1 667-681 (from UniProt O60566) pS676 15-mer,KD,"reference: unphosphorylated 15-mer, sites S676",stronger; reference 2.80 ± 0.30
BubR1 647-720 (from UniProt O60566) 3D (S670D/S676D/T680D),KD,"reference: wild type, sites S670,S676,T680",same; reference 2.91 ± 0.50
BubR1 667-681 (from UniProt O60566) pS676/pT680 15-mer,KD,"reference: pS676 15-mer, sites T680",same; reference 0.69 ± 0.11
same,KD,"reference: unphosphorylated 15-mer, sites S676,T680",stronger; reference 2.80 ± 0.30
BubR1 647-720 (from UniProt O60566) S676A,KD,[1],same; reference 2.91 ± 0.50
BubR1 647-720 (from UniProt O60566) DDT (S670D/S676D),KD,"reference: wild type, sites S670,S676",same; reference 2.91 ± 0.50
BubR1 667-681 (from UniProt O60566) B56γ1 R188A,KD,"reference: B56γ1 wild type, sites S670",weaker; reference 0.25 ± 0.06
BubR1 647-720 (from UniProt O60566) SSD (T680D),KD,[2],same; reference 2.91 ± 0.50
BubR1 647-720 (from UniProt O60566) SDD (S676D/T680D),KD,"reference: wild type, sites S676,T680",same; reference 2.91 ± 0.50
BubR1 647-720 (from UniProt O60566) DST (S670D),KD,[3],same; reference 2.91 ± 0.50
BubR1 647-720 (from UniProt O60566) DSD (S670D/T680D),KD,"reference: wild type, sites S670,T680",same; reference 2.91 ± 0.50
BubR1 647-720 (from UniProt O60566) AAAA (E678A/T680A/H681A),KD,[2],weaker; reference 2.91 ± 0.50
BubR1 647-720 (from UniProt O60566) SDT (S676D),KD,[1],same; reference 2.91 ± 0.50
BubR1 647-720 (from UniProt O60566) S670A,KD,[3],same; reference 2.91 ± 0.50
BubR1 667-681 (from UniProt O60566) pS670 15-mer,KD,"reference: unphosphorylated 15-mer, sites S670",stronger; reference 2.80 ± 0.30
